The subject of series [1] is HeLa Kyoto. The experiment in a line: melting temperature (median over replicates), in situ; higher = more thermally stable.
Series [2] has as its system HeLa Kyoto. Briefly: solubility in G1/S (NP-40 vs SDS abundance) (log2 ratio); higher = more soluble. The settings on record: cell cycle stage: G1/S.
For series [3], the system named is HeLa Kyoto. Briefly: solubility change mitosis vs G1/S (difference of NP-40 vs SDS log2 ratios) (log2 ratio difference); higher = more soluble in mitosis.
Series [4] deals with HeLa Kyoto. Briefly: thermal stability score vs G1/S (z-score of summed log2 fold changes over temperatures); higher = more thermally stable than in G1/S.
The mark [5] stands for this setting: cell cycle stage: early G1 (4.5 h after nocodazole release).
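Wherever melting temperature (median over replicates), in situ is given: HeLa Kyoto cells synchronized by double thymidine or nocodazole block, proteins quantified by TMT10plex mass spectrometry, three independent biological replicates.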
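Wherever solubility change mitosis vs G1/S (difference of NP-40 vs SDS log2 ratios) is given: synchronized HeLa Kyoto cells (double thymidine block for G1/S, nocodazole release for mitosis), protein amounts in NP-40 versus SDS lysates quantified by mass spectrometry, three biological replicates.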
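Wherever solubility in G1/S (NP-40 vs SDS abundance) is given: HeLa Kyoto cells arrested at G1/S by double thymidine block, proteins quantified by TMT10plex mass spectrometry in mild NP-40 versus SDS extracts, three biological replicates.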
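Wherever thermal stability score vs G1/S (z-score of summed log2 fold changes over temperatures) is given: synchronized HeLa Kyoto cells, proteins quantified by TMT10plex mass spectrometry, three biological replicates, mitosis taken 0.5 h after nocodazole release, G1/S directly after double thymidine block.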

Chain of ARHGAP4 (chain, as listed by the source): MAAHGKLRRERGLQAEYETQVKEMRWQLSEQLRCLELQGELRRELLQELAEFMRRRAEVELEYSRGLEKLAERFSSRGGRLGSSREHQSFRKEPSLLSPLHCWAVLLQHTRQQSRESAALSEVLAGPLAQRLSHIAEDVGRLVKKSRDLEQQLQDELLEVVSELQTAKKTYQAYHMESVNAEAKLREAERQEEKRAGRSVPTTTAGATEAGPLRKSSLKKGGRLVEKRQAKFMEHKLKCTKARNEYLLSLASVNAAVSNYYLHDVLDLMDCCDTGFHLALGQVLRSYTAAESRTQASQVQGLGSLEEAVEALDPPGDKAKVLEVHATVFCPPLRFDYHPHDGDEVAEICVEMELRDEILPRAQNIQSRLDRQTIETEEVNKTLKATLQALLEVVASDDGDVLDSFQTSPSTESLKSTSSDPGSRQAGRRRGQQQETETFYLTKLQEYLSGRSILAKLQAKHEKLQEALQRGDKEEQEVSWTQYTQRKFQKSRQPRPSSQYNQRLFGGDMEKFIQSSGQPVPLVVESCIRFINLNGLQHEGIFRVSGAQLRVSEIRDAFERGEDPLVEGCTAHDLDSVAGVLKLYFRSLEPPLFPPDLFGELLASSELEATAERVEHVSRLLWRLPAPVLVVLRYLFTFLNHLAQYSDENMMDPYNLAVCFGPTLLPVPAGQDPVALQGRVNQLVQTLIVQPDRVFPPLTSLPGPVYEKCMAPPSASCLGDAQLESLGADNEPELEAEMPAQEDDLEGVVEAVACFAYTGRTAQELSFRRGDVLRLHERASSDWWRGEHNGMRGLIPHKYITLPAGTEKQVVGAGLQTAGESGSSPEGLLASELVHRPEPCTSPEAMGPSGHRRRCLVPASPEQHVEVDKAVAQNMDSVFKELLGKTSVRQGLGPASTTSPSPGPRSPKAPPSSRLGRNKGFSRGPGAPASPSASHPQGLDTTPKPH
Chain of CKB (chain, as listed by the source): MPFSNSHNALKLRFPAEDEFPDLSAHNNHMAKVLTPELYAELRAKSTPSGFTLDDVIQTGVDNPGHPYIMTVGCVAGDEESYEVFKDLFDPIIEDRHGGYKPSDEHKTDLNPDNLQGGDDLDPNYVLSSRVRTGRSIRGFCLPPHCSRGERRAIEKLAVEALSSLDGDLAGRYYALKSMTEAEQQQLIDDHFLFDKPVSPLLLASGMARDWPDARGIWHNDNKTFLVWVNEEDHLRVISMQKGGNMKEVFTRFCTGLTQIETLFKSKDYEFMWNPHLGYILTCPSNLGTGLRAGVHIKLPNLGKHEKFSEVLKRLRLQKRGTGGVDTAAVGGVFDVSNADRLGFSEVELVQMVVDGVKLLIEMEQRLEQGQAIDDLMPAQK

As for “MDSNTAPLGPSCPQPPPAPQPQARSRLNATASLEQERSERPRAPGPQAGPGPGVRDAAAPAEPQAQHTRSRERADGTGPTKGDMEIPFEEVLERAKAGDPKAQTEVGKHYLQLAGDTDEELNSCTAVDWLVLAAKQGRREAVKLLRRCLADRRGITSENEREVRQLSSETDLERAVRKAALVMYWKLNPKKKKQVAVAELLENVGQVNEHDGGAQPGPVPKSLQKQRRMLERLVSSESKNYIALDDFVEITKKYAKGVIPSSLFLQDDEDDDELAGKSPEDLPLRLKVVKYPLHAIMEIKEYLIDMASRAGMHWLSTIIPTHHINALIFFFIVSNLTIDFFAFFIPLVIFYLSFISMVICTLKVFQDSKAWENFRTLTDLLLRFEPNLDVEQAEVNFGWNHLEPYAHFLLSVFFVIFSFPIASKDCIPCSELAVITGFFTVTSYLSLSTHAEPYTRRALATEVTAGLLSLLPSMPLNWPYLKVLGQTFITVPVGHLVVLNVSVPCLLYVYLLYLFFRMAQLRNFKGTYCYLVPYLVCFMWCELSVVILLESTGLGLLRASIGYFLFLFALPILVAGLALVGVLQFARWFTSLELTKIAVTVAVCSVPLLLRWWTKASFSVVGMVKSLTRSSMVKLILVWLTAIVLFCWFYVYRSEGMKVYNSTLTWQQYGALCGPRAWKETNMARTQILCSHLEGHRVTWTGRFKYVRVTDIDNSAESAINMLPFFIGDWMRCLYGEAYPACSPGNTSTAEEELCRLKLLAKHPCHIKKFDRYKFEITVGMPFSSGADGSRSREEDDVTKDIVLRASSEFKSVLLSLRQGSLIEFSTILEGRLGSKWPVFELKAISCLNCMAQLSPTRRHVKIEHDWRSTVHGAVKFAFDFFFFPFLSAA [WFS1]”, the melting temperature in series [1] (cell cycle stage: G1/S) was 51.7 °C; in series [1] (cell cycle stage: mitosis), 52.2 °C. For the same substance, in series [2], the “solubility in G1/S (log2)” value was determined as 0.109. In addition, in series [3], the “solubility change mitosis (log2)” value was -0.183. For the same substance, the values for the thermal stability score in series [4] (setting [5]) and in series [4] (cell cycle stage: mitosis) were 2.34 and 3.05, respectively.

With “MACPALGLEALQPLQPEPPPEPAFSEAQKWIEQVTGRSFGDKDFRTGLENGILLCELLNAIKPGLVKKINRLPTPIAGLDNIILFLRGCKELGLKESQLFDPSDLQDTSNRVTVKSLDYSRKLKNVLVTIYWLGKAANSCTSYSGTTLNLKEFEGLLAQMRKDTDDIESPKRSIRDSGYIDCWDSERSDSLSPPRHGRDDSFDSLDSFGSRSRQTPSPDVVLRGSSDGRGSDSESDLPHRKLPDVKKDDMSARRTSHGEPKSAVPFNQYLPNKSNQTAYVPAPLRKKKAEREEYRKSWSTATSPLGGERPFRYGPRTPVSDDAESTSMFDMRCEEEAAVQPHSRARQEQLQLINNQLREEDDKWQDDLARWKSRRRSVSQDLIKKEEERKKMEKLLAGEDGTSERRKSIKTYREIVQEKERRERELHEAYKNARSQEEAEGILQQYIERFTISEAVLERLEMPKILERSHSTEPNLSSFLNDPNPMKYLRQQSLPPPKFTATVETTIARASVLDTSMSAGSGSPSKTVTPKAVPMLTPKPYSQPKNSQDVLKTFKVDGKVSVNGETVHREEEKERECPTVAPAHSLTKSQMFEGVARVHGSPLELKQDNGSIEINIKKPNSVPQELAATTEKTEPNSQEDKNDGGKSRKGNIELASSEPQHFTTTVTRCSPTVAFVEFPSSPQLKNDVSEEKDQKKPENEMSGKVELVLSQKVVKPKSPEPEATLTFPFLDKMPEANQLHLPNLNSQVDSPSSEKSPVMTPQFKFWAWDPEEERRRQEKWQQEQERLLQERYQKEQDKLKEEWEKAQKEVEEEERRYYEEERKIIEDTVVPFTVSSSSADQLSTSSSMTEGSGTMNKIDLGNCQDEKQDRRWKKSFQGDDSDLLLKTRESDRLEEKGSLTEGALAHSGNPVSKGVHEDHQLDTEAGAPHCGTNPQLAQDPSQNQQTSNPTHSSEDVKPKTLPLDKSINHQIESPSERRKKSPREHFQAGPFSPCSPTPPGQSPNRSISGKKLCSSCGLPLGKGAAMIIETLNLYFHIQCFRCGICKGQLGDAVSGTDVRIRNGLLNCNDCYMRSRSAGQPTTL [LIMCH1]”, the melting temperature in series [1] (cell cycle stage: G1/S) stood at 51.2 °C; in series [1] (cell cycle stage: mitosis) it was 52 °C. Also, in series [2], the “solubility in G1/S (log2)” value was 0.188. In series [3], the “solubility change mitosis (log2)” value was -0.237. The thermal stability score amounted to 4.62 in series [4] (setting [5]) and 6.09 in series [4] (cell cycle stage: mitosis).

For the substance “MADGKAGDEKPEKSQRAGAAGGPEEEAEKPVKTKTVSSSNGGESSSRSAEKRSAEEEAADLPTKPTKISKFGFAIGSQTTKKASAISIKLGSSKPKETVPTLAPKTLSVAAAFNEDEDSEPEEMPPEAKMRMKNIGRDTPTSAGPNSFNKGKHGFSDNQKLWERNIKSHLGNVHDQDN [PCNP]”, the melting temperature came to 59.4 °C in series [1] (cell cycle stage: G1/S) and 53.8 °C in series [1] (cell cycle stage: mitosis). Moreover, in series [2], the “solubility in G1/S (log2)” value is 0.559. Further, the “solubility change mitosis (log2)” value in series [3] stood at 0.0732. The thermal stability score in series [4] (setting [5]) was -1.76; in series [4] (cell cycle stage: mitosis) it was -6.06.

For the substance ARHGAP4, the values for the melting temperature in series [1] (cell cycle stage: G1/S) and in series [1] (cell cycle stage: mitosis) were 52.5 °C and 50.3 °C, respectively. Besides, the “solubility in G1/S (log2)” value in series [2] came to 0.0702. The “solubility change mitosis (log2)” value in series [3] was -0.000167. Further, the thermal stability score was 0.224 in series [4] (setting [5]) and 0.251 in series [4] (cell cycle stage: mitosis).

Take “MSSPSPGKRRMDTDVVKLIESKHEVTILGGLNEFVVKFYGPQGTPYEGGVWKVRVDLPDKYPFKSPSIGFMNKIFHPNIDEASGTVCLDVINQTWTALYDLTNIFESFLPQLLAYPNPIDPLNGDAAAMYLHRPEEYKQKIKEYIQKYATEEALKEQEEGTGDSSSESSMSDFSEDEAQDMEL [UBE2H]”: the results for the melting temperature in series [1] (cell cycle stage: G1/S) and in series [1] (cell cycle stage: mitosis) were 52 °C and 52.4 °C, respectively. For the same substance, the “solubility in G1/S (log2)” value in series [2] was -0.0237. The “solubility change mitosis (log2)” value in series [3] was -0.126. For the same substance, the thermal stability score in series [4] (setting [5]) was determined as 0.268; in series [4] (cell cycle stage: mitosis), 0.877.

As to “MAPDPVAAETAAQGPTPRYFTWDEVAQRSGCEERWLVIDRKVYNISEFTRRHPGGSRVISHYAGQDATDPFVAFHINKGLVKKYMNSLLIGELSPEQPSFEPTKNKELTDEFRELRATVERMGLMKANHVFFLLYLLHILLLDGAAWLTLWVFGTSFLPFLLCAVLLSAVQAQAGWLQHDFGHLSVFSTSKWNHLLHHFVIGHLKGAPASWWNHMHFQHHAKPNCFRKDPDINMHPFFFALGKILSVELGKQKKKYMPYNHQHKYFFLIGPPALLPLYFQWYIFYFVIQRKKWVDLAWMITFYVRFFLTYVPLLGLKAFLGLFFIVRFLESNWFVWVTQMNHIPMHIDHDRNMDWVSTQLQATCNVHKSAFNDWFSGHLNFQIEHHLFPTMPRHNYHKVAPLVQSLCAKHGIEYQSKPLLSAFADIIHSLKESGQLWLDAYLHQ [FADS1]”, the values for the melting temperature in series [1] (cell cycle stage: G1/S) and in series [1] (cell cycle stage: mitosis) were 51.9 °C and 51.3 °C, respectively. Further, the “solubility in G1/S (log2)” value in series [2] was -0.124. The “solubility change mitosis (log2)” value in series [3] was -0.092. For the same substance, the thermal stability score in series [4] (setting [5]) was -0.752; in series [4] (cell cycle stage: mitosis), -0.737.

Regarding CKB, the melting temperature was found to be 51 °C in series [1] (cell cycle stage: G1/S) and 51.3 °C in series [1] (cell cycle stage: mitosis). Further, the “solubility in G1/S (log2)” value in series [2] came out at 0.651. The “solubility change mitosis (log2)” value in series [3] was -0.115. Besides, the thermal stability score in series [4] (setting [5]) was 1.63; in series [4] (cell cycle stage: mitosis), 2.

Source of the values: the supplement of paper PMC5998384.
